Reference: PMC9247503, “Oligomerization and Spatial Distribution of Kvβ1.1 and Kvβ2.1 Regulatory Subunits” (Frontiers in Physiology, 2022)
Where “and” joins values, the source holds several entries; their conditions need not be identical. Equal values may be shown once.

T1: Kvβ1.1CFP (mouse (from the prefix m in mKvβ1.1), UniProt P63143 1-401)
T1 construct: voltage-gated potassium channel regulatory subunit Kvβ1.1 (splice form 1.1 of Kvβ1), mouse by the prefix m in mKvβ1.1; also called mKvβ1.1 in pECFP-N1; Kvb1.1CFP; source: HEK-293, transfected; in lysate (co-IP) and in cells or membrane sheets (FRET)
T1 sequence (looked up): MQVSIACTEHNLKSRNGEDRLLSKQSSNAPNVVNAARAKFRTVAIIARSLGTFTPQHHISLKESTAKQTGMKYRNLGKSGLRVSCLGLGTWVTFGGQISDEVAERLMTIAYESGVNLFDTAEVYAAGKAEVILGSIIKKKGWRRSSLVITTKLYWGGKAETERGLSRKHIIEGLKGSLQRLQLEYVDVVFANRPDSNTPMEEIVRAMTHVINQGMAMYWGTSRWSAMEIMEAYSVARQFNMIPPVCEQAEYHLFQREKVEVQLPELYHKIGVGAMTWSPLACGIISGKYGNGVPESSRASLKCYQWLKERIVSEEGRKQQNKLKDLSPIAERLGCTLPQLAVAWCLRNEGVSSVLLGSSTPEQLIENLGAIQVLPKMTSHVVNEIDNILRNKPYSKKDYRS

T2: Kvβ2.1CFP (mouse (from the prefix m in mKvβ2.1)), P62482
T2 chain: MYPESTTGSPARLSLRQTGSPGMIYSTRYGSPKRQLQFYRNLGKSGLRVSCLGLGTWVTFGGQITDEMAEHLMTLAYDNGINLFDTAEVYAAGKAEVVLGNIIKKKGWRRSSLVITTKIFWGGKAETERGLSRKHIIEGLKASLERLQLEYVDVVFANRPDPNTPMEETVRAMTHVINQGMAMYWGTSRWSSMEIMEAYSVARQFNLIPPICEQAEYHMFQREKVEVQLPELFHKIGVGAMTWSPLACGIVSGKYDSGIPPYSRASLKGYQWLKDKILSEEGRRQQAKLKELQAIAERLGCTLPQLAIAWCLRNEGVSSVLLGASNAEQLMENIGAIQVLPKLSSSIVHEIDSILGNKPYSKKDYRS

T3: Kvβ2.1YFP (mouse (from the prefix m in mKvβ2.1)), P62482
T3 chain: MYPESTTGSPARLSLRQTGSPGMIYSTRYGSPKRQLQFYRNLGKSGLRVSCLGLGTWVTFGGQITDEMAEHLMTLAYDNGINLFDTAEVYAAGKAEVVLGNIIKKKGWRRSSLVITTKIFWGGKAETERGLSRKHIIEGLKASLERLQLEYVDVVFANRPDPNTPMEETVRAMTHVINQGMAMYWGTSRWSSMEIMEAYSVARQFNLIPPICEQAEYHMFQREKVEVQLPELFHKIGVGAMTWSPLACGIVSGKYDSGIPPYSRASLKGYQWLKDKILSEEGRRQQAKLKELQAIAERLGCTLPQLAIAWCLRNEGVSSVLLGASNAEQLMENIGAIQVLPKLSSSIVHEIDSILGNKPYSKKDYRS

B1: Kvβ1.1YFP (natural protein, mouse (from the prefix m in mKvβ1.1), UniProt P63143 1-401, looked up)
chain: MQVSIACTEHNLKSRNGEDRLLSKQSSNAPNVVNAARAKFRTVAIIARSLGTFTPQHHISLKESTAKQTGMKYRNLGKSGLRVSCLGLGTWVTFGGQISDEVAERLMTIAYESGVNLFDTAEVYAAGKAEVILGSIIKKKGWRRSSLVITTKLYWGGKAETERGLSRKHIIEGLKGSLQRLQLEYVDVVFANRPDSNTPMEEIVRAMTHVINQGMAMYWGTSRWSAMEIMEAYSVARQFNMIPPVCEQAEYHLFQREKVEVQLPELYHKIGVGAMTWSPLACGIISGKYGNGVPESSRASLKCYQWLKERIVSEEGRKQQNKLKDLSPIAERLGCTLPQLAVAWCLRNEGVSSVLLGSSTPEQLIENLGAIQVLPKMTSHVVNEIDNILRNKPYSKKDYRS
notes: voltage-gated potassium channel regulatory subunit Kvβ1.1 (splice form 1.1 of Kvβ1), mouse by the prefix m in mKvβ1.1; also called mKvβ1.1 in pEYFP-N1; source: HEK-293, transfected; in cells or membrane sheets (FRET) and in lysate (semidenaturing gel)

Assays:
Kvβ1.1CFP = biological target: T1, Kvβ1.1CFP; experiment: FRET or BRET; linear unmixing FRET (lux-FRET) on suspensions of living HEK-293 cells in PBS at 37°C, different donor molar ratios; fit of apparent EfD and EfA against xD gives E and n (units per complex); details: partners not purified
[1] = biological target: the molecule itself; experiment: semidenaturing SDS-PAGE with immunoblot; total lysates of transfected HEK-293 cells, not boiled, 8% SDS-PAGE, immunoblot with anti-GFP antibody
[2] = biological target: T2, Kvβ2.1CFP (mouse (from the prefix m in …)); experiment: FRET or BRET; linear unmixing FRET (lux-FRET) on suspensions of living HEK-293 cells in PBS at 37°C, different donor molar ratios; fit of apparent EfD and EfA against xD gives E and n (units per complex); details: remark: other sources report otherwise
[3] = biological target: T3, Kvβ2.1YFP (mouse (from the prefix m in …)); experiment: semidenaturing SDS-PAGE with immunoblot; total lysates of transfected HEK-293 cells, not boiled, 8% SDS-PAGE, immunoblot with anti-GFP antibody; details: remark: other sources report otherwise
Kvβ1.1YFP = biological target: B1; experiment: FRET or BRET; linear unmixing FRET (lux-FRET) on suspensions of living HEK-293 cells in PBS at 37°C, different donor molar ratios; fit of apparent EfD and EfA against xD gives E and n (units per complex); details: partners not purified

Row | FRET efficiency (E) (Kvβ1.1CFP) [%] | stoichiometry N (Kvβ1.1CFP) | Binder | stoichiometry N [1] | also measured
1 | 30.2 | 1.93 | B1 | 2 and 4 | 
2 |  |  | Kvβ2.1YFP, P62482 1-367 (natural protein) MYPESTTGSPARLSLRQTGSPGMIYSTRYGSPKRQLQFYRNLGKSGLRVSCLGLGTWVTFGGQITDEMAEHLMTLAYDNGINLFDTAEVYAAGKAEVVLGNIIKKKGWRRSSLVITTKIFWGGKAETERGLSRKHIIEGLKASLERLQLEYVDVVFANRPDPNTPMEETVRAMTHVINQGMAMYWGTSRWSSMEIMEAYSVARQFNLIPPICEQAEYHMFQREKVEVQLPELFHKIGVGAMTWSPLACGIVSGKYDSGIPPYSRASLKGYQWLKDKILSEEGRRQQAKLKELQAIAERLGCTLPQLAIAWCLRNEGVSSVLLGASNAEQLMENIGAIQVLPKLSSSIVHEIDSILGNKPYSKKDYRS |  | FRET efficiency (E) [2]: 22.3%; stoichiometry N [2]: 2.09; stoichiometry N [3]: 2 and 4
3 | 32.5 | 1.88 | Kvβ2.1YFP (natural protein, mouse (from the prefix m in mKvβ2.1), UniProt P62482 1-367, looked up, voltage-gated potassium channel regulatory subunit Kvβ2.1, mouse by the prefix m in mKvβ2.1; also called mKvβ2.1 in pEYFP-N1; Kvb2.1 YFP; source: HEK-293, transfected; in cells or membrane sheets (FRET) and in lysate (semidenaturing gel)) MYPESTTGSPARLSLRQTGSPGMIYSTRYGSPKRQLQFYRNLGKSGLRVSCLGLGTWVTFGGQITDEMAEHLMTLAYDNGINLFDTAEVYAAGKAEVVLGNIIKKKGWRRSSLVITTKIFWGGKAETERGLSRKHIIEGLKASLERLQLEYVDVVFANRPDPNTPMEETVRAMTHVINQGMAMYWGTSRWSSMEIMEAYSVARQFNLIPPICEQAEYHMFQREKVEVQLPELFHKIGVGAMTWSPLACGIVSGKYDSGIPPYSRASLKGYQWLKDKILSEEGRRQQAKLKELQAIAERLGCTLPQLAIAWCLRNEGVSSVLLGASNAEQLMENIGAIQVLPKLSSSIVHEIDSILGNKPYSKKDYRS |  | 
4 |  |  | Kvβ2.1CFP (natural protein, mouse (from the prefix m in mKvβ2.1), UniProt P62482 1-367, looked up, voltage-gated potassium channel regulatory subunit Kvβ2.1, mouse by the prefix m in mKvβ2.1; also called mKvβ2.1 in pECFP-N1; source: HEK-293, transfected; in lysate (co-IP) and in cells or membrane sheets (FRET)) MYPESTTGSPARLSLRQTGSPGMIYSTRYGSPKRQLQFYRNLGKSGLRVSCLGLGTWVTFGGQITDEMAEHLMTLAYDNGINLFDTAEVYAAGKAEVVLGNIIKKKGWRRSSLVITTKIFWGGKAETERGLSRKHIIEGLKASLERLQLEYVDVVFANRPDPNTPMEETVRAMTHVINQGMAMYWGTSRWSSMEIMEAYSVARQFNLIPPICEQAEYHMFQREKVEVQLPELFHKIGVGAMTWSPLACGIVSGKYDSGIPPYSRASLKGYQWLKDKILSEEGRRQQAKLKELQAIAERLGCTLPQLAIAWCLRNEGVSSVLLGASNAEQLMENIGAIQVLPKLSSSIVHEIDSILGNKPYSKKDYRS |  | FRET efficiency (E) (Kvβ1.1YFP): 30.4%; stoichiometry N (Kvβ1.1YFP): 1.99
5 |  |  | Kv1.3YFP (natural protein, UniProt P15384 1-525, looked up, voltage-gated potassium channel Kv1.3 (α subunit); Used as the tetrameric positive control; source: HEK-293, transfected; in cells (FRET) and in lysate (semidenaturing gel)) MTVVPGDHLLEPEAAGGGGGDPPQGGCVSGGGCDRYEPLPPALPAAGEQDCCGERVVINISGLRFETQLKTLCQFPETLLGDPKRRMRYFDPLRNEYFFDRNRPSFDAILYYYQSGGRIRRPVNVPIDIFSEEIRFYQLGEEAMEKFREDEGFLREEERPLPRRDFQRQVWLLFEYPESSGPARGIAIVSVLVILISIVIFCLETLPEFRDEKDYPASPSQDVFEAANNSTSGASSGASSFSDPFFVVETLCIIWFSFELLVRFFACPSKATFSRNIMNLIDIVAIIPYFITLGTELAERQGNGQQAMSLAILRVIRLVRVFRIFKLSRHSKGLQILGQTLKASMRELGLLIFFLFIGVILFSSAVYFAEADDPSSGFNSIPDAFWWAVVTMTTVGYGDMHPVTIGGKIVGSLCAIAGVLTIALPVPVIVSNFNYFYHRETEGEEQAQYMHVGSCQHLSSSAEELRKARSNSTLSKSEYMVIEEGGMNHSAFPQTPFKTGNSTATCTTNNNPNSCVNIKKIFTDV | 2 and 4 | 
